To fix the notation:
B1: LINE1-mini (parent)
chain: GGCAGAGCUCAACACAGCGUGGCAAAGUGGCUGUGGCUAGACUGCC

The variants in the series derive from B1. Nature of the series: self-cleavage, relative activity (ratio to wild type); higher = more cleavage; in vitro, sequencing; the parent is a self-cleaving ribozyme.
In the case of U9G U38G, the self-cleavage was 0.01. To U9G U38A belongs 0.06; to C10G G29C, 0.04. As for C10G G29U, the self-cleavage was 0.08. Regarding C10G G29A, the self-cleavage came out at 0.1. To C10A U34G belongs 0.04. Take C10A U34C: the self-cleavage came to 0.04. To C10A U34A belongs 0.05; to U9G C45A, 0.11; to U9G C45G, 0.21. On to U9G C45U, for which the self-cleavage turned out to be 0.16. To C10A U28G belongs 0.06; to C10A U28C, 0.07. For C10A U28A, the self-cleavage turned out to be 0.04. As for C10A G40C, the figure is 0.02; as for C10A G40A, 0.02; as for C10A G40U, 0.03. As for C10G A25U, the figure is 0.1.

C10G A25G: the self-cleavage stood at 0.08.

With C10G A25C, the self-cleavage was 0.1. To U9G G44U belongs 0.08; to U9G G44A, 0.12; to U9G G44C, 0.03. To C10A G21A belongs 0.08; to C10A G21C, 0.04; to C10A G21U, 0.04. To U9G A12U belongs 0.14; to U9G A12G, 0.02; to U9G A12C, 0.02. As for U9G G35U, the self-cleavage is 0.07. As for U9G G35C, the figure is 0.03; as for U9G G35A, 0.11.

With C10G C42G, the self-cleavage was 0.03. Take C10G C42A: the self-cleavage turned out to be 0.03. To C10G C42U belongs 0.03; to C10G A14G, 0.09; to C10G A14U, 0.05.

As for C10G A14C, the self-cleavage is 0.04.

For C10G U38A, the self-cleavage turned out to be 0.06. As to C10G U38C, the self-cleavage was found to be 0.02. As for C10G U38G, the figure is 0.03.

On to C10G A16C, for which the self-cleavage is 0.02.

For C10G A16U, the self-cleavage stood at 0.06. Take C10G A16G: the self-cleavage is 0.06.

For C10A A24U, the self-cleavage worked out at 0.05. In the case of C10A A24G, the self-cleavage was 0.06.

As for C10A A24C, the self-cleavage worked out at 0.03. With C10A C18U, the self-cleavage was 0.07. As for C10A C18G, the figure is 0.04; as for C10A C18A, 0.07.

As for U9G U32A, the self-cleavage came out at 0.12.

As for U9G U32G, the self-cleavage turned out to be 0.05. Consider U9G U32C, for which the self-cleavage amounted to 0.05.

C10G C45U: the self-cleavage is 0.14. Regarding C10G C45A, the self-cleavage was found to be 0.07. As for C10G C45G, the figure is 0.02; as for C10A A41C, 0.04. To C10A A41G belongs 0.03; to C10A A41U, 0.02; to C10A G35C, 0.02. As for C10A G35U, the figure is 0.03. Regarding C10A G35A, the self-cleavage amounted to 0.04.

Turning to C10G G40U, the self-cleavage came out at 0.02. As to C10G G40A, the self-cleavage was 0.01. To C10G G40C belongs 0.02. As for U9G G33U, the figure is 0.08; as for U9G G33A, 0.06; as for U9G G33C, 0.05. On to C10A U38G, for which the self-cleavage was 0.05. As for C10A U38C, the figure is 0.16. To C10A U38A belongs 0.15; to U9G G27A, 0.07; to U9G G27C, 0.08. As for U9G G27U, the figure is 0.06; as for C10A A11C, 0.02; as for C10A A11G, 0.03. Regarding C10A A11U, the self-cleavage is 0.03.

On to U9G G29A, for which the self-cleavage is 0.08. For U9G G29U, the self-cleavage was determined as 0.07. As for U9G G29C, the figure is 0.05; as for C10A C31G, 0.03; as for C10A C31U, 0.04. To C10A C31A belongs 0.03; to C10G A39C, 0.02. To C10G A39U belongs 0.16. Take C10G A39G: the self-cleavage was 0.03. To U9G A41C belongs 0.04; to U9G A41U, 0.14. To U9G A41G belongs 0.08; to C10G G44U, 0.04.

For the variant C10G G44C, the self-cleavage came to 0.06. As for C10G G44A, the figure is 0.05; as for C10G C23U, 0.09.

With C10G C23A, the self-cleavage was 0.08. To C10G C23G belongs 0.07; to C10G A26C, 0.11; to C10G A26U, 0.15.

As to C10G A26G, the self-cleavage is 0.12.

For C10A C46G, the self-cleavage was found to be 0.04.

Consider C10A C46A, for which the self-cleavage amounted to 0.05. As for C10A C46U, the figure is 0.07; as for C10U A14G, 0.22.

Take C10U A14C: the self-cleavage amounted to 0.05. As for U9G G21A, the figure is 0.13; as for U9G G21C, 0.08. To U9G G21U belongs 0.06; to C10A G33A, 0.04. Turning to C10A G33C, the self-cleavage amounted to 0.03. Consider C10A G33U, for which the self-cleavage is 0.05. As for C10G G30C, the figure is 0.2; as for C10G G30A, 0.21; as for C10G G30U, 0.22. As for C10A A25C, the figure is 0.05. As for C10A A25U, the figure is 0.1; as for C10A A25G, 0.04.

As to C10G G21U, the self-cleavage is 0.14. In the case of C10G G21A, the self-cleavage is 0.18. To C10G G21C belongs 0.07. As for C10G A24G, the figure is 0.1. To C10G A24C belongs 0.06; to C10G A24U, 0.15. On to C10G A41C, for which the self-cleavage came to 0.01.

For the variant C10G A41U, the self-cleavage amounted to 0.05. As for C10G A41G, the figure is 0.05; as for C10A G30A, 0.1. To C10A G30C belongs 0.08; to C10A G30U, 0.09.

Turning to C10G U20A, the self-cleavage came out at 0.06. For C10G U20G, the self-cleavage came to 0.05. To C10G U20C belongs 0.07. As for C10G U28A, the figure is 0.11; as for C10G U28G, 0.08. To C10G U28C belongs 0.12; to C10A G29U, 0.04; to C10A G29C, 0.04. Turning to C10A G29A, the self-cleavage turned out to be 0.06. As for U9G A25C, the figure is 0.13; as for U9G A25U, 0.14; as for U9G A25G, 0.06.

For U9G A11U, the self-cleavage amounted to 0.03. To U9G A14G belongs 0.12; to U9G A14U, 0.06; to U9G A14C, 0.2.

For C10G G17U, the self-cleavage came out at 0.07. To C10G G17A belongs 0.16. As for C10G G17C, the figure is 0.23; as for C10A A12G, 0.02; as for C10A A12U, 0.04. As for C10A A12C, the figure is 0.04; as for U9G G22U, 0.19; as for U9G G22C, 0.1. In the case of U9G G22A, the self-cleavage was determined as 0.21. To U9G A26C belongs 0.21. For the variant U9G A26G, the self-cleavage was found to be 0.04. To U9G A26U belongs 0.15.

On to C10G G19A, for which the self-cleavage was 0.1.

In the case of C10G G19C, the self-cleavage turned out to be 0.06. On to C10G G19U, for which the self-cleavage turned out to be 0.11.

Turning to C10A U32C, the self-cleavage turned out to be 0.03. On to C10A U32G, for which the self-cleavage was found to be 0.03. C10A U32A: the self-cleavage stood at 0.02. To C10A C15A belongs 0.04; to C10A C15U, 0.08. As for C10A C15G, the figure is 0.04; as for C10U, 0.34. To C10G belongs 0.11. Take C10A: the self-cleavage worked out at 0.07.

Source of the values: the RNAGym collection of RNA variant scans (doi:10.7554/elife.90254).
